Some targets named below: human GCGR (human) (UniProt P47871); human GIPR (human) (UniProt P48546); human GLP1R (human) (UniProt P43220); human GLP2R (human) (UniProt O95838).
For experiment [1], the target named is chicken GCRP receptor (chicken).
Experiment [2] deals with Xenopus GCRP receptor (Xenopus).
The target in experiment [3] is medaka GCRP receptor (medaka).
The target of experiment [4] is medaka GCRP receptor (medaka). This is another data set of the same source.
Experiment [5] has as its target medaka GCRP receptor (medaka). The source holds these as a separate data set.
For experiment [6], the target named is medaka GCRP receptor (medaka). Description: radioligand binding; competitive displacement on HEK293T cells transfected with GCRPR (300 ng DNA/well, 12-well plates); 100,000 cpm 125I-chGCRP without or with various concentrations of cold peptides, 1 h, binding buffer (serum-free DMEM with 0.1% BSA, pH 7.4); IC50 by nonlinear regression.
In experiment [7] the target is medaka GCRP receptor (medaka). The experiment is described as above. This is another data set of the same source.
Experiment [8] deals with Xenopus GCRP receptor (Xenopus). This is another data set of the same source.
Experiment [9] shares this target. Description: radioligand binding; competitive displacement on HEK293T cells transfected with GCRPR (300 ng DNA/well, 12-well plates); 100,000 cpm 125I-chGCRP without or with various concentrations of cold peptides, 1 h, binding buffer (serum-free DMEM with 0.1% BSA, pH 7.4); IC50 by nonlinear regression.
Experiment [10] shares this target. The experiment is described as above. The source holds these as a separate data set.
The target in experiment [11] is chicken GCRP receptor (chicken). The source holds these as a separate data set.
Experiment [12] has as its target chimeric chGCRPR/chGLP1R (chicken).
In experiment [13] the target is chimeric chGCRPR/huGLP1R (chicken | human) (UniProt P43220).
The target of experiment [14] is chicken GCRP receptor (chicken). The source holds these as a separate data set.
Experiment [15] shares this target. Description: radioligand binding; competitive displacement on HEK293T cells transfected with GCRPR (300 ng DNA/well, 12-well plates); 100,000 cpm 125I-chGCRP without or with various concentrations of cold peptides, 1 h, binding buffer (serum-free DMEM with 0.1% BSA, pH 7.4); IC50 by nonlinear regression.
Experiment [16] has the same target. Described as above. This is another data set of the same source.

Broadly, the IC50 is the midpoint of a concentration-inhibition curve. Low readings indicate greater potency in that assay, high ones weaker potency in that assay.

Where two headings read alike, the source gives them in different places. Ends that are not written are not given here.

Chain of chimeric chGCRPR/huGLP1R (chicken | human) (P43220 whole entry, change not shown): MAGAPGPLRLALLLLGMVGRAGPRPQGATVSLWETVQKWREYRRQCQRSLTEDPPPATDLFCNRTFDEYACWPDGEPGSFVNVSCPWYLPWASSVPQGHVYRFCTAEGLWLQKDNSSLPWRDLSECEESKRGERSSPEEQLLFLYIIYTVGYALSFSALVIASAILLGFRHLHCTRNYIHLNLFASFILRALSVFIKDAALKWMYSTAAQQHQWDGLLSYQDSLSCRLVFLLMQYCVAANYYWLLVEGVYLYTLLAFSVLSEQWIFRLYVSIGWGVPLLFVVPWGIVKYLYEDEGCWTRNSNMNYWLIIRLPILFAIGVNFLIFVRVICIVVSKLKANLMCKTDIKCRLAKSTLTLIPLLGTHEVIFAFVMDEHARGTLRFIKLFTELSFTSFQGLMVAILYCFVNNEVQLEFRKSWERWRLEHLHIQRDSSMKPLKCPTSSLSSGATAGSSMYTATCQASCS
Chain of human GIPR (human) (P48546 22-466): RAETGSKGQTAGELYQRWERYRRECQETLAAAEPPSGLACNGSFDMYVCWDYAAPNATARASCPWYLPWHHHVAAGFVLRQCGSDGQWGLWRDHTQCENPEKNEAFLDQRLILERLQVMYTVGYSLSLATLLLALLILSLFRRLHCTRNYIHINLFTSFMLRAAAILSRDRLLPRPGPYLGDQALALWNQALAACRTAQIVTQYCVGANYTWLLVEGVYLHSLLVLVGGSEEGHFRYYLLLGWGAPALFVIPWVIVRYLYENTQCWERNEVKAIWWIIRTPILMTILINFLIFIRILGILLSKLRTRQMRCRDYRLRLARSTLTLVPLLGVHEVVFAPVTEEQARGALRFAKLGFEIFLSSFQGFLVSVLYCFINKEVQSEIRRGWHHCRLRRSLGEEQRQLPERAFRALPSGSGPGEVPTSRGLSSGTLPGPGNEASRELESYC
Chain of human GCGR (human) (P47871 26-477): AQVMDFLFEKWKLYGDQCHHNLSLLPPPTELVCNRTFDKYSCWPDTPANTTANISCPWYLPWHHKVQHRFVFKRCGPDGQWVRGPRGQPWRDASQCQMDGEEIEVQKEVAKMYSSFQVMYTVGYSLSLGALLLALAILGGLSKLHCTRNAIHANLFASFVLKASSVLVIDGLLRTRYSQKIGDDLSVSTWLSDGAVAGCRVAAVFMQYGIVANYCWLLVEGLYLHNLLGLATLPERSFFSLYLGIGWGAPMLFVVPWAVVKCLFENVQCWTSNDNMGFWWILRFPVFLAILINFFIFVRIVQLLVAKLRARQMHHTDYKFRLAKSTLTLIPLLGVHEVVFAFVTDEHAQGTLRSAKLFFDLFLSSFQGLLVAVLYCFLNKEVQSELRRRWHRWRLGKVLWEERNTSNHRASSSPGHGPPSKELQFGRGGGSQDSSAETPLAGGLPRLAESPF
Chain of human GLP1R (human) (P43220 24-463): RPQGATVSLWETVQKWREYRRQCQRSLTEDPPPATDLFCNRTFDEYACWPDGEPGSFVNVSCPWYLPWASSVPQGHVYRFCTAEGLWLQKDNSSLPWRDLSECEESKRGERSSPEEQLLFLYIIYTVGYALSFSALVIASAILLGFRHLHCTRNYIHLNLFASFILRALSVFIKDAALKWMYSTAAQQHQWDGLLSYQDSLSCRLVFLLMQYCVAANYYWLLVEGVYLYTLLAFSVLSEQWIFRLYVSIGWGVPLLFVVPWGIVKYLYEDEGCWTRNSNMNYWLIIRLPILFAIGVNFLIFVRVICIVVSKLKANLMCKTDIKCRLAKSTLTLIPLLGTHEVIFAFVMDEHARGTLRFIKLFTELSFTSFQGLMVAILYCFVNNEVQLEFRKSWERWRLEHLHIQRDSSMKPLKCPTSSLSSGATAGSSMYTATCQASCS
Chain of human GLP2R (human) (O95838 whole entry): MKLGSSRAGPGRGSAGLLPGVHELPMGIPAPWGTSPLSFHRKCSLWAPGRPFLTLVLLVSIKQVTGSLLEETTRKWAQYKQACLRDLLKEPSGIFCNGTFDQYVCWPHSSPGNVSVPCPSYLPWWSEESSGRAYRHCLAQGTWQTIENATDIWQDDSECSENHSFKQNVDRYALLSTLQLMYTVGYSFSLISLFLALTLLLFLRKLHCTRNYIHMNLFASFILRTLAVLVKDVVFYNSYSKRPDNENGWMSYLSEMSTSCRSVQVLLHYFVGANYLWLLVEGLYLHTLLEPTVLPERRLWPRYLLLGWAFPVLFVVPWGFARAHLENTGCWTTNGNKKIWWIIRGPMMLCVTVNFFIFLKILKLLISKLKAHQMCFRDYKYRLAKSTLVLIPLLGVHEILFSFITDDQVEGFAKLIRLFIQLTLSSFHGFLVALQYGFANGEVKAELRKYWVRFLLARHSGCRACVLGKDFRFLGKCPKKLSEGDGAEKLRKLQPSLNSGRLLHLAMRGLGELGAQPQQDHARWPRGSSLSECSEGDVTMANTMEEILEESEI

B1: Chicken GLP2 (peptide)
peptide: HADGTFTSDINKILDDMAAKEFLKWLINTKVTQ
In experiment [1], B1 showed a CRE-luc reporter, HEK293T cells with the receptor: EC50 of 33.4 nM and a CRE-luc reporter, HEK293T cells with the receptor: Emax (fold induction) of 6.26.

B2: Medaka GCRP (peptide)
peptide: HTDGMFTSDLTNYLDKMKAKNFVEWLAAIKQQE
Consider B2, for which the CRE-luc reporter, HEK293T cells with the receptor: EC50 in [2] was determined as 94.6 nM; in experiment [1], 68.2 nM; in [3], 6.84 nM; with human GCGR (human) it was 175 nM; with human GLP1R (human) it was 156 nM; in [4] it was 6.76 nM. In addition, the CRE-luc reporter, HEK293T cells with the receptor: Emax (fold induction) in experiment [2] was determined as 32; in experiment [1], 6.93; in experiment [3], 7.9; in the experiment with human GCGR (human) it was 2.27; in the experiment with human GIPR (human), 2.11; with human GLP1R (human) it was 20.9. In [5], this molecule came in with a cAMP level by Glosensor-22F luminescence in HEK293T cells with the receptor: EC50 of 1.15 nM. In addition, the values for the half-maximal inhibitory concentration (IC50) in [6] and in experiment [7] were 327 nM and 320 nM, respectively.

B3: Human GIP (peptide)
peptide: YAEGTFISDYSIAMDKIHQQDFVNWLLAQKGKKNDWKHNITQ
In the experiment with human GIPR (human), B3 yielded a CRE-luc reporter, HEK293T cells with the receptor: Emax (fold induction) of 5.21.

B4: Medaka GCG1 (peptide)
peptide: HSEGTFSNDYSKYLEDRKAQDFVRWLMNN
Regarding B4, in [3], the CRE-luc reporter, HEK293T cells with the receptor: EC50 came out at 108 nM and the CRE-luc reporter, HEK293T cells with the receptor: Emax (fold induction) was 4.26.

B5: Xenopus GCRP (peptide)
peptide: HSEGTFSSDLTRYLDKMKAKDFVQWLMN
B5: the CRE-luc reporter, HEK293T cells with the receptor: EC50 in experiment [2] is 2.24 nM; in experiment [1], 1.18 nM; in experiment [3] it was 30.6 nM; with human GCGR (human), 182 nM; in the experiment with human GLP1R (human) it was over 1000 nM. Besides, the CRE-luc reporter, HEK293T cells with the receptor: Emax (fold induction) in [2] is 30.4; in experiment [1] it was 6.25; in experiment [3] it was 8.1; with human GCGR (human), 2.09; in the experiment with human GIPR (human) it was 1.95; with human GLP1R (human), 24.1. In experiment [8], this molecule returned a cAMP level by Glosensor-22F luminescence in HEK293T cells with the receptor: EC50 of 46 nM. The IC50 in [9] is 65.5 nM; in experiment [10], 63 nM.

B6: Chicken GCRP (peptide)
peptide: HSEGTFTSDFTRYLDKMKAKDFVHWLINT
With B6, the CRE-luc reporter, HEK293T cells with the receptor: EC50 in experiment [2] amounted to 5.86 nM; in [1], 0.87 nM; in [3] it was 33.7 nM; with human GCGR (human) it was 42.7 nM; with human GLP1R (human) it was 48.9 nM; in the experiment with human GLP2R (human), 592 nM. Moreover, the CRE-luc reporter, HEK293T cells with the receptor: EC50 in experiment [11] came out at 0.32 nM; with chicken GLP1R (chicken), 8.03 nM; in experiment [12], 8.57 nM; in experiment [13], 9.44 nM. Moreover, the CRE-luc reporter, HEK293T cells with the receptor: Emax (fold induction) in [2] came out at 30.1; in [1] it was 6; in experiment [3], 8.12; in the experiment with human GCGR (human), 6.32; in the experiment with human GIPR (human) it was 3.03; with human GLP1R (human), 19.8. Moreover, the CRE-luc reporter, HEK293T cells with the receptor: Emax (fold induction) with human GLP2R (human) was 6.32; in [11], 5.56; in the experiment with chicken GLP1R (chicken), 19.2; in experiment [12] it was 7.3; in experiment [13], 62.9. This molecule returned a cAMP level by Glosensor-22F luminescence in HEK293T cells with the receptor: EC50 in experiment [14] of 5.8 nM. Further, the values for the IC50 in [15] and in [16] were 43.5 nM and 43.6 nM, respectively.

B7: Chicken GLP1 (peptide)
peptide: HAEGTYTSDITSYLEGQAAKEFIAWLVNGR
modifications: also: unexplained 'a' after last residue
As for B7, the CRE-luc reporter, HEK293T cells with the receptor: EC50 in [11] was found to be 18.3 nM; with chicken GLP1R (chicken), 0.2 nM; in experiment [12], 1.52 nM; in experiment [13] it was 2.29 nM. Moreover, the CRE-luc reporter, HEK293T cells with the receptor: Emax (fold induction) was 5.8 in experiment [11], 28.2 in the experiment with chicken GLP1R (chicken), 12.6 in experiment [12] and 91.9 in experiment [13]. The IC50 in experiment [9] and in experiment [15] was over 1000 nM in each case.

B8: Chicken GIP (peptide)
peptide: YSEATLASDYSRTMDNMLKKNFVEWLLARREKKSDNVIEPY
As for B8, in [2], the CRE-luc reporter, HEK293T cells with the receptor: EC50 is 274 nM and the CRE-luc reporter, HEK293T cells with the receptor: Emax (fold induction) is 32.4. For the same molecule, in [1], the CRE-luc reporter, HEK293T cells with the receptor: EC50 amounted to 69.2 nM and the CRE-luc reporter, HEK293T cells with the receptor: Emax (fold induction) was determined as 6.22.

The values above are taken from article PMC3679108, “A Novel Glucagon-Related Peptide (GCRP) and Its Receptor GCRPR Account for Coevolution of Their Family Members in Vertebrates” (PLoS ONE, 2013).
